Laboratory results taken from US20250073269A1 (CAS LAMVAC GUANGZHOU BIOMEDICAL TECHNOLOGY, published 2025).
Values joined by “and” are separate entries in the source; they are usually repeats but may differ in a detail not shown here. Identical values can stand only once.

Tests used:
[1] = target: T1, catenated VAR2CSA recombinant protein AXVB (Plasmodium, isopeptide bond between SpyTag and SpyCatcher (intra- or intermolecular coupling, cyclization and catenation)); experiment: ELISA, AXVB coated, 5H4 mAb titrated; single experiment of three
T1 construct: also called AXVB protein; AXVB navigator protein
Description: (§1) (1) Antigen coating: The AXVB and rVAR2 proteins were diluted to a final concentration of 20 nM with the Na₂CO₃—NaHCO₃ carbonate coating buffer (with a pH of 9.6) which was filtered and sterilized by the 0.22 μm filter membrane, respectively, 100 μL of each protein sample was added to a 96-well Elisa plate (JET BIOFIL, Guangzhou, China, Cat. #FEP101896), with three replicates per protein sample, and the Elisa plate was covered with a sealing film and incubated at 4° C. overnight. […] (2) Antigen blocking: The coating solution in the Elisa plate was removed, the Elisa plate was washed with a PBST solution (1×PBS+0.05% v/v polyoxyethylene sorbitan fatty acid ester, with a pH of 7.2-7.4) three times, the liquid was patted dry, 200 μL of PBST solution containing 5% BSA was added, and the Elisa plate was then incubated at room temperature for 2 hours. […] (3) Primary antibody incubation: The antigen blocking solution was removed, the Elisa plate was washed with the PBST solution three times, and 100 μL of 5H4 mAb at different concentrations which was diluted with an antibody dilution solution (1×PBS containing 0.1% BSA) in different ratios was added to each well.

[2] = target: T2, wild-type VAR2CSA recombinant protein (rVAR2) (Plasmodium); experiment: ELISA, rVAR2 coated, 5H4 mAb titrated; single experiment of three
T2 construct: Monomer of about 73.1 kDa including the tag, with no intra- or intermolecular coupling; Prepared as in CN110325551B; also called rVAR2 protein; monomeric VAR2CSA recombinant protein
T2 chain: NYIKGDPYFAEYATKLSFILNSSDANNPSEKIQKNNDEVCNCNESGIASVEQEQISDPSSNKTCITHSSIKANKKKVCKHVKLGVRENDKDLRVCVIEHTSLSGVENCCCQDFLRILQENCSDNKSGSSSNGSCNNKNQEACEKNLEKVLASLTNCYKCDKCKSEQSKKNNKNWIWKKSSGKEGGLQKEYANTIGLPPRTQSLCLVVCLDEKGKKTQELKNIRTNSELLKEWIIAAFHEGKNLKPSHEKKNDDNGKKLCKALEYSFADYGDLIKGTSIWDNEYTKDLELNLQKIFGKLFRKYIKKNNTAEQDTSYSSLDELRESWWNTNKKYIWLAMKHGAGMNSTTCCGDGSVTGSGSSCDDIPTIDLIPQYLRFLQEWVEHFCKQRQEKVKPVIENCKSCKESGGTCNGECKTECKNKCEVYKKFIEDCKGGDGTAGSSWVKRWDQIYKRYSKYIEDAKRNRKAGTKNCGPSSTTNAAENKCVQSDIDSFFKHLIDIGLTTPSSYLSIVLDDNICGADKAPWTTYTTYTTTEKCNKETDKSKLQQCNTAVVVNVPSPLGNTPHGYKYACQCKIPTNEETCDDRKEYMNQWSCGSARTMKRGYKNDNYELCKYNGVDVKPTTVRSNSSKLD
Description: as §1

[3] = target: T1, catenated VAR2CSA recombinant protein …; experiment: ELISA, AXVB coated, 5H4 mAb titrated; single experiment of three (FIG. 10)
Description: as §1

[4] = target: T2, wild-type VAR2CSA recombinant protein …; experiment: ELISA, rVAR2 coated, 5H4 mAb titrated; single experiment of three (FIG. 11)
Description: as §1

[5] = target: T1, catenated VAR2CSA recombinant protein …; experiment: ELISA, AXVB coated at 20 nM, 5H4 mAb titrated, non-linear regression; mean of three experiments
[6] = target: T2, wild-type VAR2CSA recombinant protein …; experiment: ELISA, rVAR2 coated at 20 nM, 5H4 mAb titrated, non-linear regression; mean of three experiments

B1: monoclonal antibody 5H4 (5H4 mAb) (antibody, V domains shown)
VH: EVKLVESGGGLVKPGGSLKLSCAASGFTFSNYAMSWVRQSPERRLEWVAEISITGRYTYYPDTVTGRFTISRDNAKNTLYLEMSSLRSEDTAMYYCTREGYDYAPSWFAYWGQGTLVTVSA
VL: DVVMTQTPLSLPVSLGDQASISCRSGQTLVHRNGITYLEWYLQKPGQSPKLLIYKVSNRFSGVPDRFSGSGSGTDFTLKISRVEAEDLGIYYCFQGSHVPRTFGGGTKLEIK
notes: Mouse monoclonal antibody, detected with anti-mouse IgG; also called mouse anti-rVAR2 protein monoclonal antibody 5H4 mAb
B1 was tested, and the Kd [1] was 73 nM and 100 nM, the Kd [2] was 123 nM and 174 nM and the Kd [3] was 77.8 nM. For the same binder, the Kd [4] was 136 nM, the Kd [5] was 83.7 nM and the Kd [6] was 144 nM.
